Data published in patent publication US20250313621A1 (NXERA PHARMA UK, published 2025).
One block for each binder: values may come before it.

Experiments:
[1] = target: T1, Wildtype human PAR2 expressed on cells (human, UniProt P55085 37-397); assay: cell-based or functional assay
T1 sequence: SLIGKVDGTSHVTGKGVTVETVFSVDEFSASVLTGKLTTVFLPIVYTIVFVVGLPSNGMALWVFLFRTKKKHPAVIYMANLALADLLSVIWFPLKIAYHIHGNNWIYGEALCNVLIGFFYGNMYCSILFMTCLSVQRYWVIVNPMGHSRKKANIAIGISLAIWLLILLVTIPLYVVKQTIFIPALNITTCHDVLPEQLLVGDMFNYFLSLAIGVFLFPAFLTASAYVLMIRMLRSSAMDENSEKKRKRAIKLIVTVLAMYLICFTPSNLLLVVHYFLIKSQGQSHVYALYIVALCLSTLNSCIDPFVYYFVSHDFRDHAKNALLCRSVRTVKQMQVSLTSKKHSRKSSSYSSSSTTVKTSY

[2] = target: T2, Human PAR2 StaR incorporated into nanodiscs (construct not stated) (human, UniProt P55085 37-377, limits assumed); assay: SPR Biacore; human PAR2 StaR incorporated into nanodiscs
T2 construct: also called nanodisc-embedded StaR
T2 sequence: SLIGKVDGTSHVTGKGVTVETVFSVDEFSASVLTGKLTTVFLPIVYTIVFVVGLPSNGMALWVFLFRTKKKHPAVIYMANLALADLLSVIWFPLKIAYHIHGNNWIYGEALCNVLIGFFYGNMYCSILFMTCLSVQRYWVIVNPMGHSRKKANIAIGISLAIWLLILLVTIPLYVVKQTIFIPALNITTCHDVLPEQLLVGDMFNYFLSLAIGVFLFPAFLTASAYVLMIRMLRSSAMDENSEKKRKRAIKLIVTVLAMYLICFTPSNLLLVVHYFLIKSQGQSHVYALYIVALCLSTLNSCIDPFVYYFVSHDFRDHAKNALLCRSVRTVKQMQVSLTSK

[3] = target: T1, Wildtype human PAR2 expressed on cells; assay: cell-based or functional assay; remark: listed apart in the source
[4] = target: T3, PAR2-3: P157: 1-377, glycosylated, pBacMamHisStrepII, full length (human, UniProt P55085 26-377); assay: SPR Biacore; IgG captured on anti-human IgG, 100 nM PAR2 analyte; 1:1 model
T3 construct: detergent-solubilised analyte in SPR, or on infected cells in flow cytometry; also called FL-N PAR2 StaR; FL-N StaR; not shown: C-terminal StrepII and deca-histidine tags
T3 sequence: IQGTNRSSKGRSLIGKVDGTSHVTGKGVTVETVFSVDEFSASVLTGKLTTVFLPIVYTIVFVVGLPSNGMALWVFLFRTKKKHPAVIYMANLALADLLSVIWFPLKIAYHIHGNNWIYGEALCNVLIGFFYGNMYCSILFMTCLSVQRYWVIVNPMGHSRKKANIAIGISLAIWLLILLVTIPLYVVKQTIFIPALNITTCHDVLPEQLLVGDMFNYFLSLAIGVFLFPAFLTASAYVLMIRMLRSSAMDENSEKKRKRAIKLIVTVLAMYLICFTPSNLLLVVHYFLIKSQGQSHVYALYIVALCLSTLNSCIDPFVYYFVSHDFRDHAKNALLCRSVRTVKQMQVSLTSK
Experimental: The antibodies were captured on anti-human IgG chip surface followed by injection of 100 nM PAR2. The data were fitted to 1:1 interaction model except for clone ‘Y021160’ in which case heterogeneous ligand model was used and component with slow dissociation was used for comparison.
For three purified IgG1f_AEASS clones Y021171, Y022054 and Y022063 affinities to human PAR2-3 variant (P157: 1-377, glycosylated, pBacMamHisStrepII, full length) were determined by SPR immobilizing the IgG and probing with detergent (LMNG/CHS) solubilized FL-N PAR2 StaR. Affinities were 22 nM and 20 nM for Y022063 and Y021171, respectively.

[5] = target: T3, PAR2-3: P157: 1-377, glycosylated, …; assay: SPR Biacore T200; IgG captured on anti-human IgG, 250 nM PAR2 analyte; 1:1 model
Experimental: The assay of PAR2 interaction with anti-PAR2 antibodies was carried out using a Biacore T200 instrument (GE Healthcare). Anti-human IgG antibody (Human Antibody Capture Kit, GE Healthcare) was immobilised by amine coupling on a sensor chip CM3 (GE Healthcare) to a surface density of 3500 to 4500 resonance units (RU). Immobilisation was carried out at 25° C. in HBS-EP+ buffer (GE Healthcare). The buffer was then changed to 50 mM HEPES, pH 7.5, 150 mM NaCl, 0.02% LMNG, 0.002% CHS. Each cycle of the PAR2-antibody interaction assay consisted of antibody capture (100 nM antibody injected for 2 min at a flow rate of 5 μL/min), PAR2 injection (blank or 250 nM, with contact and dissociation times of 2 and 3 minutes, respectively, at a flow rate of 20 μl/minute), and chip surface regeneration (30 seconds at 20 μl/minute) using the regeneration solution from Human Antibody Capture Kit (GE Healthcare). […] Measurements between each experimental data set were within the acceptable margins for this methodology.
The antibodies were captured on anti-human IgG chip surface followed by injection of 250 nM PAR2. The data were fitted to 1:1 interaction model.

[6] = target: T4, Mouse PAR2 on Flp-In CHO cells (mouse, UniProt P55086 39-399); assay: cell binding, flow cytometry/IntelliCyt
T4 construct: whole, on cells
T4 sequence (looked up): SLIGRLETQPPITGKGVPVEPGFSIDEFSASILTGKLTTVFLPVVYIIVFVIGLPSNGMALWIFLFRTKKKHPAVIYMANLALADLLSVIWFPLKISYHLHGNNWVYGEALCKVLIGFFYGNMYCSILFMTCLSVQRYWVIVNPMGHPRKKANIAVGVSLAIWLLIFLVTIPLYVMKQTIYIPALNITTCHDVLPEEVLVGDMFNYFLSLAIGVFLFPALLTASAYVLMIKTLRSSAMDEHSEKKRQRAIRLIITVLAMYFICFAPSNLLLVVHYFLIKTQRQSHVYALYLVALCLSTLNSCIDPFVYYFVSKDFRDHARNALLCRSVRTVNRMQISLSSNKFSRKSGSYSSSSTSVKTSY

[7] = target: T1, Wildtype human PAR2 expressed on cells; assay: cell-based or functional assay; remark: listed apart in the source
[8] = target: T1, Wildtype human PAR2 expressed on cells; assay: IntelliCyt flow cytometry, titration of IgG1f_AEASS on HEK Flp-In TRex 293_huPAR2 expression-induced cells, S/BG
Experimental: (§1) To evaluate species cross-reactivity and/or unwanted binding to counter-targets simultaneously, screening in 384-well plate format was performed using the HTFC/iQue screening platform from IntelliCyt. The HTFC/iQue Screening System was also used for evaluation of binding to multiple target cell lines or evaluation of unwanted/non-specific binding in parallel, in other words multiplexing. Different cell populations could be distinguished by pre-labelling with distinct amounts of fluorescent dyes, such as Calcein or Cell-Tracker Green, establishing a unique signature of fluorescence intensity for each cell population, thereby producing a fluorescence coding system. The color-coded cell lines were then physically combined and mixed together with antibodies to be tested. Individual cell-lines could be identified via the fluorescence of the respective cell-line that had been pre-labelled. Crude bacterial cell lysates were combined with cells and incubated for 1 hour at room temperature in the dark, shaking gently. Fluorescence measurement was performed with the IntelliCyt HTFC/iQue device. In between incubation steps, no washing was required. Raw data were evaluated with the help of the ‘ForeCyt’ software. After data acquisition, the cell lines from each sample could be identified according to their fluorescence signature and individually evaluated for antibody binding. […]

[9] = target: T1, Wildtype human PAR2 expressed on cells; assay: cell-based or functional assay; remark: listed apart in the source
[10] = target: Cynomolgus PAR2 on BacMam-infected HEK293 cells (cynomolgus); assay: cell-based or functional assay
Rhesus PAR2 on cells = Rhesus PAR2 on cells (rhesus (Macaca mulatta)); assay: cell-based or functional assay
[11] = target: T5, V5His-huPAR2 on Flp-In CHO cells (human, UniProt P55085 37-397); assay: IntelliCyt flow cytometry, titration of IgG1f_AEASS on Flp-In CHO_V5His_huPAR2 cells, S/BG
T5 sequence: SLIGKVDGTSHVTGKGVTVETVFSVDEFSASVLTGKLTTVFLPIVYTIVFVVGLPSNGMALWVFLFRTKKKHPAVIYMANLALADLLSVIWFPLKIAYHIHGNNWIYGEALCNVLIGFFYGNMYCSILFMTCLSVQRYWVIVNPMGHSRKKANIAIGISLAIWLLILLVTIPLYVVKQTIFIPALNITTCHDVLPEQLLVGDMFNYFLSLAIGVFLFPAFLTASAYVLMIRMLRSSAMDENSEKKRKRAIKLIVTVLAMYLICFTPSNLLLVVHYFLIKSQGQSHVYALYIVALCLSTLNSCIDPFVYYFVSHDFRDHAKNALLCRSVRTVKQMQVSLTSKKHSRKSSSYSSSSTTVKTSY
Experimental: as §1

[12] = target: T4, Mouse PAR2 on Flp-In CHO cells; assay: FACS titration on CHO mouse Par2 cells, RLU [continued) C]
Text: Binding events to cell surface expressed antigen were identified by flow cytometry using either crude E. coli lysates from the panning output or purified antibodies. High throughput primary screens of panning outputs from differential whole cell pannings (DWCP) were mainly performed on human wild type PAR2-expressing Flp-In CHO cells (Flp-In CHO_huPAR2), GNTI BacMam wild type PAR2 cells and GNTI BacMam truncated PAR2 StaR versus parental Flp-In CHO cells (PAR2 negative) or non-infected HEK293GNTI-cells. Candidates showing an elevated background binding to parental Flp-In CHO cells were ascribed as either non-specific or off-target binders. All steps were performed in FACS buffer including FCS and sodium azide to prevent potential receptor internalization. Cell suspensions were transferred into microtiter plates and antibody samples were added followed by subsequent incubation of plates at 4° C. Sample volume and cell-number were adjusted to the plate type used. Following incubation, cells were spun down and washed with FACS buffer. Fluorophore-conjugated secondary reagents were used for detection of bound antibodies. Plates were measured using the BD FACS Array or IntelliCyt HTFC/iQue System and data was analysed using FlowJo, ForeCyt or proprietary software tools (FIG. 3).

Wildtype human PAR 1 = target: T6, Wildtype human PAR 1 (human, UniProt P25116 42-425); assay: IntelliCyt flow cytometry, titration of IgG1f_AEASS, S/BG
T6 construct: BacMam-infected HEK293f cells in the IP-One assay
T6 sequence: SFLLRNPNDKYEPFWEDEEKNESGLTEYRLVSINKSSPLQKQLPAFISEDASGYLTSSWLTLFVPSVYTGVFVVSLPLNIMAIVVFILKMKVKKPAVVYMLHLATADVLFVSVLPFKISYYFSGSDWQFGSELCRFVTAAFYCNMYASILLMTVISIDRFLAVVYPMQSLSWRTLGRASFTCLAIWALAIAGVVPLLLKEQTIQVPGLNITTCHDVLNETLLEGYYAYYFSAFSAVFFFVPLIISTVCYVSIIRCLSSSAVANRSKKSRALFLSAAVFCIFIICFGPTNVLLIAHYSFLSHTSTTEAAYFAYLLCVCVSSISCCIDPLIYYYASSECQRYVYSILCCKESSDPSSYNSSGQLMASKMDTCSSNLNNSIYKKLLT
Experimental: as §1

[13] = target: T1, Wildtype human PAR2 expressed on cells; assay: flow cytometry on HEK293F-humanPAR2 (3.0E+06 cells/mL), S/BG [continued]

% Max Inhibition, Bovine Trypsin challenge, IP-One [1]: 19%
Kd [2]: 0.031 µM
koff [2]: 0.037 s⁻¹
kon [2]: 1.2e+06 M⁻¹ s⁻¹
% Max Inhibition AP, IP-One [3]: 32%
Kd [4]: 0.07 µM
koff [4]: 0.029 s⁻¹
kon [4]: 410000 M⁻¹ s⁻¹
Kd [5]: 0.02 µM
koff [5]: 0.011 s⁻¹
kon [5]: 530000 M⁻¹ s⁻¹
binding result [6]: no binding
% Max Inhibition, AP challenge, IP-One [7]: 163%
B1: Y021171 (antibody, V domains shown)
VH: EVQLVESGGGLVKPGGSLRLSCAASGFTFSSYSINWVRQAPGKGLEWVSSISSSSSYTYYAESVKGRFTISRDNAKNSLYLQMNSLRAEDTAVYYCARAASGFAIFDYWGQGTLVTVSS
VL: DIQMTQSPSSVSASVGDRVTITCRASQGISSWLAWYQQKPGKAPKLLIYAASSLQSGVPSRFSGSGSGTDFTLTISSLQPEDFATYYCQQTHYVPLTFGQGTKVEIKR

EC50 (read off the curve) [8]: ~0.007 µM
IC50 (nM), SLIGKV agonist challenge, Human [9]: 264 nM
IC50 (nM), SLIGKV agonist challenge, Cyno [10]: > 2000 nM
IC50 (nM), SLIGKV agonist challenge, Rhesus (Rhesus PAR2 on cells): > 2000 nM
EC50 (read off the curve) [11]: ~0.004 µM
binding result [12]: no binding
% Max Inhibition AP, IP-One [3]: 43%
Kd [4]: 0.0053 µM
koff [4]: 0.00016 s⁻¹
kon [4]: 30000 M⁻¹ s⁻¹
binding result (Wildtype human PAR 1): no binding (tested: 200 nM)
B2: Y022065 (antibody, human IgG1, lambda, V domains shown)
VH: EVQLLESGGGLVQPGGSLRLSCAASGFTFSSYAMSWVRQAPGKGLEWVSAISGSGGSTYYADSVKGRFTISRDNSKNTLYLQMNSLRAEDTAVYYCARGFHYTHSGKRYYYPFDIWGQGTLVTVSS
VL: QSALTQPASVSGSPGQSITISCTGTSSDVGSYNLVSWYQQHPGKAPKLMIYEGSKRPSGVSNRFSGSKSGNTASLTISGLQAEDEADYYCSQYATFIAFAVFGGGTKLTVLG
notes: also called clone Y022065; parental clone Y022065

EC50 (read off the curve) [13]: ~0.01 µM
B3: Fab Y022877 (Fab, V domains shown)
VH: EVQLLESGGGLVQPGGSLRLSCAASGFTFSRYAMTWVRQAPGKGLEWVSTISGLGQEAYYAGSVKGRFTISRDNSKNTLYLQMNSLRAEDTAVYYCARGFHYTHSGKRYYYPFDIWGQGTLVTVSS
VL: QSALTQPASVSGSPGQSITISCTGTSSDVGSYNLVSWYQQHPGKAPKLMIYEGSKRPSGVSNRFSGSKSGNTASLTISGLQAEDEADYYCSQYATFIAFAVFGGGTKLTVLG
